Experimental data taken from patent US20250381293A1, “PEPTIDES AND MAGNETIC PARTICLE-PEPTIDE CONJUGATES FOR PREVENTION OR TREATMENT OF GLAUCOMA” (THE GOVERNORS OF THE UNIVERSITY OF ALBERTA, priority 2022, published 2025).

Assays:
[1] = tested on: XFS materials; assay: Ex vivo targeting of Cy5-labeled phage-displayed peptides on exfoliative human lens capsules; assay type: binding; conditions: 1 hr, 37° C., human aqueous humor/BSS; fluorescence microscopy
Protocol: Amplified phages (1×10^11 pfu) were resuspended in 0.3 M NaHCO3 (pH 8.6) containing 10 μg Cy5 dye and incubated for 2 hr at room temperature in the dark. Subsequent to phage/fluorophore incubation, 40 μl of 10 mM lysine was added to interact with remaining free Cy5 dye molecules in the solution. The volume of the reaction mixture was subsequently brought up to 1 ml with PBS buffer, and the phages were purified with two rounds of 20% (w/v) polyethylene glycol-8000, 2.5 M NaCl precipitation. The labeled phages resuspended in BSS solution.
Fluorescently labeled phages carrying identified targeting peptides as well as wild-type phages without peptide-encoding inserts were incubated with exfoliative human lens capsules in a 100-μl solution containing equal volumes of human aqueous humor fluid and BSS solution. The incubation was allowed to continue for 1 hr at 37° C. After serially washing with BSST buffer (0.1, 0.3%), three times each, the lens capsules were mounted on microscope slides and were examined under an Olympus IX81 inverted fluorescence microscope (Olympus Corporation, Tokyo, Japan). The location of XFS materials on the surface of the lens capsule was confirmed in bright-field mode prior to fluorescence imaging.

[2] = tested on: hTM cells; assay: DNA fragmentation analysis (apoptosis); assay type: cell-based, human; conditions: free peptide solution, 24 hr (0.5 mM, elsewhere in the source)
Protocol: Effect of peptide-particle conjugates and peptide solutions on the induction of apoptotic DNA fragmentation was analyzed in hTM cells. […] Cells were recovered from wells using a cell scraper. DNA was isolated and purified using DNeasy blood and tissue kit (Qiagen). Extracted DNA molecules from control and treated hTM cells were subjected to 2% agarose gel electrophoresis and visualized by SYBR green staining.

[3] = tested on: hTM cells; assay: Live/dead cell viability assay on hTM monolayers; assay type: cell-based; conditions: free peptide solution, 1 mM; mean±1 SD, n≥3
Protocol: Primary human trabecular meshwork (hTM) cells were obtained from ScienCell Research Laboratories (Carlsbad, CA), and maintained in TMCM medium (ScienCell, no. 6591). Primary cell culture was passaged according to the manufacturer's instructions. Passage three cells were seeded on tissue culture plates coated with gelatin and media were refreshed every 2-3 days. These monolayer cultures were used in subsequent experiments upon reaching 95-100% confluency.
Cell viability was further assayed using LIVE/DEAD® viability/cytotoxicity kit (Molecular Probes). Monolayers of hTM cells were treated in triplicates with peptides alone in solution (1 mM) and in conjugation with MPs (100 μg). Cell viability was then assessed according to the manufacturer's protocol. The kit is based on calcein AM/ethidium homodimer-1 (EthD-1) system, where calcein AM detects cellular esterase activity of live cells and EthD-1 stains nuclei of dead cells. A similar live/dead assay was used to investigate the effect of MP-peptide conjugates on the viability of hTM cells in the presence of the rotating magnetic field. […] The viability of hTM cells was then assessed as described above. […] The cells were treated with the rotating magnetic field for 10 min and then analyzed using live/dead assay as described before. […]

## LPSYNLHPHVPP [p-LPS]
[1]
  binding of Cy5-labeled phages to XFS materials on lens capsule: specific binding to XFS materials
[2]
  apoptotic chromosomal DNA fragmentation: chromosomal DNA remained intact
[3]
  % of live cells: 99.12 ± 0.94%

## IPLLNPGSMQLS [p-IPL]
[1]
  binding of Cy5-labeled phages to XFS materials on lens capsule: specific binding to XFS materials
[2]
  apoptotic chromosomal DNA fragmentation: chromosomal DNA remained intact
[3]
  % of live cells: 99.00 ± 0.37%
